A word on the stoichiometry N: it is a count of units in the complex or per binding partner.

Experiment [1] deals with GFP–STIM2K dimer (oxidized, disulphide-linked through Cys725) (human) (UniProt Q9P246). The experiment is described as follows: pull-down; competition: GFP–STIM2K dimer bound to Ca^2+/CaM beads, eluted with 75 μM purified CaM or CaM mutant in 1 mM CaCl2; percent of bound GFP–STIM2K eluted.
In experiment [2] the target is GFP–Zipper–STIM1K (GFP, tetramerization domain of the Gcn4 leucine zipper variant pLI, STIM1 K-rich domain) (yeast | human) (UniProt Q13586). Nature of the experiment: SEC; Superdex 200 10/300 GL in HK buffer (25 mM HEPES/KOH pH 7.5, 150 mM KCl, 1 mM DTT), 0.5 ml/min; elution compared with marker proteins. Background: Size exclusion chromatography separates by hydrodynamic size, large species first.

For experiment [3], the target named is GFP–STIM2K dimer (oxidized, disulphide-linked through Cys725) (human) (UniProt Q9P246).
Experiment [4] shares this target. This is another data set of the same source.
The target is the same in experiment [5]. The source holds these as a separate data set.

Sequence of GFP–STIM2K dimer (oxidized, disulphide-linked through Cys725) (human) (Q9P246 720-746): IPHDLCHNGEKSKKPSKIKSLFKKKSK

Substance “CaM1–4m (human CaM1–4 mutant, all four EF-hand domains mutated) (from UniProt P0DP23 1-149) (natural protein)” showed a percent of GFP–STIM2K eluted from the Ca^2+/CaM beads in experiment [1] of 7%.
As for “GFP–Zipper–STIM1K (GFP, tetramerization domain of the Gcn4 leucine zipper variant pLI, STIM1 K-rich domain) (from UniProt Q13586-1 662-685)”, in experiment [2], the stoichiometry N came to 4.
For the substance “His(6)-tagged human CaM (calmodulin) (from UniProt P0DP23 1-149) (natural protein)”, the reduction of binding of 2 μM GFP–STIM2K dimer to PM-like liposomes with 2 mol% PI(4,5)P2 after pre-incubation with 5 μM CaM in 50, 100 or 200 μM CaCl2 (2.1-, 2.6- and 3.4-fold against CaCl2 alone) in experiment [3] stood at 71%. This substance also registered a reduction of binding of 2 μM GFP–STIM2K dimer to PM-like liposomes with 2 mol% PI(4,5)P2 after pre-incubation with 5 μM CaM in 100 μM CaCl2, against 100 μM CaCl2 alone in experiment [4] of 61%. For the same substance, the reduction of binding of 2 μM GFP–STIM2K dimer to PC liposomes with 5 mol% PI(4,5)P2 after pre-incubation with 5 μM CaM in 100 μM CaCl2 (5-fold against no CaCl2, 3.8-fold against 100 μM CaCl2) in experiment [5] turned out to be 74%. This substance also had a percent of GFP–STIM2K eluted from the Ca^2+/CaM beads in experiment [1] of 45%.
